# In patent publication US20250092148A1 (Kyowa Kirin, published 2025):
# B1: anti-CD116 antibody 116-408, Fab (Fab, V domains shown)
# VH: EVQLVQSGAEVKKPGASVKVSCKVSGYTLTDLSMHWVRQAPGKGLEWMGGFDPEDGERIYAQKFQGRVTMTEDTSTDTAYMELSSLRSEDTAVYYCATGLFYYYYGMDVWGQGTMVTVSS
# VL: not shown
# Tests used:
# Assay in all cases: flow cytometry, Fab 0.25 µg/mL on HEK-293T cells expressing the mutant
# human CD116 L249A = biological target: T1, human CD116 L249A (human, UniProt P15509 23-400)
# T1 construct: whole, on cells
# T1 sequence (looked up): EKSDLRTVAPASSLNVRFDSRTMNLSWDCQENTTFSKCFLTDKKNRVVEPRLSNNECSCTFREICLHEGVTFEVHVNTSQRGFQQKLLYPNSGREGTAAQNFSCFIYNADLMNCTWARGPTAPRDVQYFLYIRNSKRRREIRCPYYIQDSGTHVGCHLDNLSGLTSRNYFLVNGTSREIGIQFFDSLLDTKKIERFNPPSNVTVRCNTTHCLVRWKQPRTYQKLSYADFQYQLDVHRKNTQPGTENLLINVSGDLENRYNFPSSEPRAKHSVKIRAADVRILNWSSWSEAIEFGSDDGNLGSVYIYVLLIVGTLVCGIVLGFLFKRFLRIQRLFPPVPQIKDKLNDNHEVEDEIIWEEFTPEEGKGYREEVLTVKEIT
# human CD116 D300A = biological target: T2, human CD116 D300A (human, UniProt P15509 23-400)
# T2 construct: whole, on cells
# T2 sequence (looked up): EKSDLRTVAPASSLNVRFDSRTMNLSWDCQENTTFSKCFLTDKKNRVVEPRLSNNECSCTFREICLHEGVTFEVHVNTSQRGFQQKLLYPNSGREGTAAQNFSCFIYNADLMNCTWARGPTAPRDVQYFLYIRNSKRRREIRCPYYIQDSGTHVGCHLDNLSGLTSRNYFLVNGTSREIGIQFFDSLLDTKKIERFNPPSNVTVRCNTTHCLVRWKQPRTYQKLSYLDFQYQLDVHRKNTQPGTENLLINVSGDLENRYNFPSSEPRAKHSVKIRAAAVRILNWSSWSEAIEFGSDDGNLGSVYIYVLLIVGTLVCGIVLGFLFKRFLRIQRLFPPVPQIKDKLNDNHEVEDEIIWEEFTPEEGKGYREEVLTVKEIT
# human CD116 T187A = biological target: T3, human CD116 T187A (human, UniProt P15509 23-400)
# T3 construct: whole, on cells
# T3 sequence (looked up): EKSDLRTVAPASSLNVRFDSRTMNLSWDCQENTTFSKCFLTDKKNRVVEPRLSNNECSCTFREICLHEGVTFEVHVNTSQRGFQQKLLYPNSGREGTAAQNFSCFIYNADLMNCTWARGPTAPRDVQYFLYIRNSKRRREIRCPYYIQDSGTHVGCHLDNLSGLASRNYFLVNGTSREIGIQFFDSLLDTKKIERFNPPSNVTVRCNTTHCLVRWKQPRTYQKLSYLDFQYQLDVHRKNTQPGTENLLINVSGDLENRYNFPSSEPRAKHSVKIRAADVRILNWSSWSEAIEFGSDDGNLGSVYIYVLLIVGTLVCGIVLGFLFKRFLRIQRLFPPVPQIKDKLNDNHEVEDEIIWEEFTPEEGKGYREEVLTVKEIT
# human CD116 Y248A = biological target: T4, human CD116 Y248A (human, UniProt P15509 23-400)
# T4 construct: whole, on cells
# T4 sequence (looked up): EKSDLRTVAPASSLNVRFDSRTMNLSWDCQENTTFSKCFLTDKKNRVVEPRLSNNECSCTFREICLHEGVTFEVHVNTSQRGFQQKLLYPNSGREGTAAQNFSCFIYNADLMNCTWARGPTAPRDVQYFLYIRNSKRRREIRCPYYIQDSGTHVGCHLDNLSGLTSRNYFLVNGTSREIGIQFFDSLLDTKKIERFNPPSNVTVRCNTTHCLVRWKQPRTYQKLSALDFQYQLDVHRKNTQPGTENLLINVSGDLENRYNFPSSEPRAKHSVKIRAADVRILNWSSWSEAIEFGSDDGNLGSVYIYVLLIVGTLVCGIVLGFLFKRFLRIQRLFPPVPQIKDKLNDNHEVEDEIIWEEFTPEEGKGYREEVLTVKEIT
# human CD116 R302A = biological target: T5, human CD116 R302A (human, UniProt P15509 23-400)
# T5 construct: whole, on cells
# T5 sequence (looked up): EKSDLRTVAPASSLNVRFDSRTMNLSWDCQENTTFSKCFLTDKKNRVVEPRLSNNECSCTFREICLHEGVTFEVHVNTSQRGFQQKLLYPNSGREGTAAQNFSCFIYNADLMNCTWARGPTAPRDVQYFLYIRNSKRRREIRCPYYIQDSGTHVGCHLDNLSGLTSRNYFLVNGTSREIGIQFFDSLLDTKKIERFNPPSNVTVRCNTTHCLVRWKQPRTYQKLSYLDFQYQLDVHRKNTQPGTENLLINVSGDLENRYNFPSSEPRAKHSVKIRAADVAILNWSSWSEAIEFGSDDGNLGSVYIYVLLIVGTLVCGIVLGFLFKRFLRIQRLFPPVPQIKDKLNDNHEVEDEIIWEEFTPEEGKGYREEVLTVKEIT
# human CD116 K213A = biological target: T6, human CD116 K213A (human, UniProt P15509 23-400)
# T6 construct: whole, on cells
# T6 sequence (looked up): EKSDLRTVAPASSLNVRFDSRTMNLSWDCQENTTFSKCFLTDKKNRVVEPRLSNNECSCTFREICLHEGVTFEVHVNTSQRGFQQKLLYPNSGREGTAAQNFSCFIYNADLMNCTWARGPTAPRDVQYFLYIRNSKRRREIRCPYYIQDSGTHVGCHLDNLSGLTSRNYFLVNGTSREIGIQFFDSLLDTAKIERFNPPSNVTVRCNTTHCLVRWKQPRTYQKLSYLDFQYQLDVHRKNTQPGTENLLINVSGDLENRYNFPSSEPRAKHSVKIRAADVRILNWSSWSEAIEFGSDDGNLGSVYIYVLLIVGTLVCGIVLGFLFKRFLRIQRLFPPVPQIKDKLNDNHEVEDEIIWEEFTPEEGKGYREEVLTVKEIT
binder,measurement,setting,value
B1,Binding Reactivity (% WT),human CD116 L249A,92.4 % WT
same,Binding Reactivity (% WT),human CD116 D300A,84.8 % WT
same,Binding Reactivity (% WT),human CD116 T187A,16.2 % WT
same,Binding Reactivity (% WT),human CD116 Y248A,78.2 % WT
same,Binding Reactivity (% WT),human CD116 R302A,93.8 % WT
same,Binding Reactivity (% WT),human CD116 K213A,98.4 % WT
